Data as given in article PMC10755771.

Target: STAM1-His (signal-transducing adaptor molecule 1, wild type) (UniProt Q92783)

in vitro ubiquitination of STAM1 by AIP4 with βarr1 at 0-320 nM, 90 min at 37 °C; EC50 for βarr1 from the STAM1 immunoblots: 48.7 nM | in vitro ubiquitination of STAM1 by AIP4 with βarr1 at 0-320 nM, 90 min at 37 °C; EC50 for βarr1 from the ubiquitin immunoblots: 49.8 nM
Substance: βarrestin1 (untagged, wild type) (from UniProt P49407 1-418) (natural protein)
